Data set [1] has as its target recombinant α-synuclein, full length (1-140 AA) (rPeptide) (UniProt P37840).
Data set [2] concerns the target recombinant α-synuclein 1-95 (1-95 AA) (GenWay Biotech) (UniProt P37840).

Chain of porcine pancreas derived KLK1 (chain, as listed by the source): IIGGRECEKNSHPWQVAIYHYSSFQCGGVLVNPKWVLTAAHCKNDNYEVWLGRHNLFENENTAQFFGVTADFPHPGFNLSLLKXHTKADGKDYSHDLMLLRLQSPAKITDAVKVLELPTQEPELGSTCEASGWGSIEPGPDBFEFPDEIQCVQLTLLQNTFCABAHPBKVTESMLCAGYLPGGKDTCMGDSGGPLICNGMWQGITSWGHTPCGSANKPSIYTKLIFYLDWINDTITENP

In the case of porcine pancreas derived KLK1, the “degradation (cleavage) of α-synuclein, Western blot after 24 hours at 37° C., 100 nM KLK1 + 2.5 µM α-synuclein” value in data set [1] is given as “After 24 hours of treatment, all detectable α-synuclein was degraded by KLK1”. Also, the “degradation (cleavage) of α-synuclein 1-95, Western blot after 3 hours at 37° C., 1 mM KLK1 + 250 µg/ml α-synuclein 1-95” value in data set [2] is reported as “After 3 hours of treatment, all detectable α-synuclein 1-95 was degraded by KLK1”.
